No end group written: not given here.

The target in the experiment is membrane-bound Torpedo californica nicotinic acetylcholine receptor (Torpedo californica). Kind of experiment: radioligand binding.
membrane-bound Torpedo californica nicotinic acetylcholine receptor (Torpedo californica), sequence (P02710 25-461 limits assumed, chain 1 of 4): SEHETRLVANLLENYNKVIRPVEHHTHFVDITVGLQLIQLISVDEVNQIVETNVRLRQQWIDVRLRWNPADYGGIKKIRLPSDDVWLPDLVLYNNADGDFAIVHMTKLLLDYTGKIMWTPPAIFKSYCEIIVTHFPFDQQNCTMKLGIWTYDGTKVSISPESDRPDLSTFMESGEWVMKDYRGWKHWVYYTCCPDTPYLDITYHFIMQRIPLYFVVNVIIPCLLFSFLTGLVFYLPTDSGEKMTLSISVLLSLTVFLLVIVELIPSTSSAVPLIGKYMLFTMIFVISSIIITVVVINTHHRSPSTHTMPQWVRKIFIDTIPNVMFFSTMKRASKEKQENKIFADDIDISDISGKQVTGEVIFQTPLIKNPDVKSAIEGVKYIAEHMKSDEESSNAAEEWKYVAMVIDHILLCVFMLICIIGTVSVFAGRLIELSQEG
membrane-bound Torpedo californica nicotinic acetylcholine receptor (Torpedo californica), sequence (P02712 25-493 limits assumed, chain 2 of 4, further chain): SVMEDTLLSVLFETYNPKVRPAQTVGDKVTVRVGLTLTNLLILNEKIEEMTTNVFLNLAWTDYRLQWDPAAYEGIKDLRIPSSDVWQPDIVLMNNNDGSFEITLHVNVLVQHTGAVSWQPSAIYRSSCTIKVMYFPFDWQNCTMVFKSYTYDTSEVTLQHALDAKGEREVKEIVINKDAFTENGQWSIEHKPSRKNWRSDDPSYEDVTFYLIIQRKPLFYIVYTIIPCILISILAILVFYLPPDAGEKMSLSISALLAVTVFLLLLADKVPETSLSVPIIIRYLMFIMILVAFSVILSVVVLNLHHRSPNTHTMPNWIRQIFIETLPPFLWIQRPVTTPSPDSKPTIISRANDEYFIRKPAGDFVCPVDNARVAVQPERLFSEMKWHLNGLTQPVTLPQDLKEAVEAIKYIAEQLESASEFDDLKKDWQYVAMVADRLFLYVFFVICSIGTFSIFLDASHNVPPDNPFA
membrane-bound Torpedo californica nicotinic acetylcholine receptor (Torpedo californica), sequence (P02714 18-506 limits assumed, chain 3 of 4, further chain): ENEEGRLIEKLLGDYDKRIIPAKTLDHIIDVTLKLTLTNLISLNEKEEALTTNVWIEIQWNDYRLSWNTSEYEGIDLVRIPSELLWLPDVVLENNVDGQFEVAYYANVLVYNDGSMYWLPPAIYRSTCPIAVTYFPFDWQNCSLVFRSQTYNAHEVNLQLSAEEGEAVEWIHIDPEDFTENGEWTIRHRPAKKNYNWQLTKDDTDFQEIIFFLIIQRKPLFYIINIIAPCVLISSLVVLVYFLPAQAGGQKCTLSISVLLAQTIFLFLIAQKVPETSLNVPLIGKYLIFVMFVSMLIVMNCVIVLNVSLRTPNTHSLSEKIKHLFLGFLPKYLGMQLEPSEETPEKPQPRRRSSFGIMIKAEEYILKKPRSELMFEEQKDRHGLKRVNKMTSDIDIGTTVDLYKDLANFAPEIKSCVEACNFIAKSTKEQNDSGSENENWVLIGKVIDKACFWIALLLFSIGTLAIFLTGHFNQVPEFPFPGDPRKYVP
membrane-bound Torpedo californica nicotinic acetylcholine receptor (Torpedo californica), sequence (P02718 22-522 limits assumed, chain 4 of 4, further chain): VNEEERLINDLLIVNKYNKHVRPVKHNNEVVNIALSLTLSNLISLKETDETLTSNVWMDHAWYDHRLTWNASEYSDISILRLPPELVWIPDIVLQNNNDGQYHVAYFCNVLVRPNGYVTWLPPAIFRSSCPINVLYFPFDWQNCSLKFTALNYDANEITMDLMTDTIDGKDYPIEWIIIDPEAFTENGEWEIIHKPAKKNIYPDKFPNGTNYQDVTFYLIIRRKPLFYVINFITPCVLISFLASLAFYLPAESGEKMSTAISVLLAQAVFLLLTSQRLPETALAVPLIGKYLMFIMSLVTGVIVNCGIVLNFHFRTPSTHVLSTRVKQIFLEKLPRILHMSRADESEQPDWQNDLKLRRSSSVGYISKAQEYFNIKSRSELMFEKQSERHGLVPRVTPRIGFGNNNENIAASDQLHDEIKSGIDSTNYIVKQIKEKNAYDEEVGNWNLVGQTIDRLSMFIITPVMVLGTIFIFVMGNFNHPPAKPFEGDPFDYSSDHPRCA

B1: Lynx1 (1), synthetic loop II fragment of human Lynx1 with Cys added at both termini, disulfide-cyclised (peptide)
peptide: CTTRTYYTPTRMKVSKC
modifications: not fully specified (bridges); cysteine pairing not given here
A word on the IC50: it is the point on the concentration scale where inhibition reaches its midpoint. For the molecule B1, the IC50 is 4.9 µM. That is a single-digit micromolar value.

B2: Lynx1 short linear (4), shorter loop II fragment of human Lynx1 with free terminal Cys (peptide)
peptide: CTRTYYTPTRMC
In turn, B2 gave an IC50 of 15.6 µM.

B3: Lynx1 short (3), shorter loop II fragment of human Lynx1 with terminal Cys, disulfide-cyclised (peptide)
peptide: CTRTYYTPTRMC
modifications: not fully specified (bridges); cysteine pairing not given here
Turning to B3, the IC50 was determined as 74.1 µM.

B4: Lynx1 linear (2), synthetic 15-membered loop II fragment of human Lynx1 (peptide)
peptide: TTRTYYTPTRMKVSK
In turn, B4 came in with an IC50 of 13.2 µM.
